Measured values from PMC7118906 (2020).

Molecular target: GPI (Homo sapiens, UniProt P06744)
Test: MST

Kd: 8.59 nM
B1: GPD2 (protein)
chain: ADCISEPVNREPPSREAQLLTLQNTSEFDILVIGGGATGSGCALDAVTRGLKTALVERDDFSSGTSSRSTKLIHGGVRYLQKAIMKLDIEQYRMVKEALHERANLLEIAPHLSAPLPIMLPVYKWWQLPYYWVGIKLYDLVAGSNCLKSSYVLSKSRALEHFPMLQKDKLVGAIVYYDGQHNDARMNLAIALTAARYGAATANYMEVVSLLKKTDPQTGKVRVSGARCKDVLTGQEFDVRAKCVINATGPFTDSVRKMDDKDAAAICQPSAGVHIVMPGYYSPESMGLLDPATSDGRVIFFLPWQKMTIAGTTDTPTDVTHHPIPSEEDINFILNEVRNYLSCDVEVRRGDVLAAWSGIRPLVTDPKSADTQSISRNHVVDISESGLITIAGGKWTTYRSMAEDTINAAVKTHNLKAGPSRTVGLFLQGGKDWSPTLYIRLVQDYGLESEVAQHLAATYGDKAFEVAKMASVTGKRWPIVGVRLVSEFPYIEAEVKYGIKEYACTAVDMISRRTRLAFLNVQAAEEALPRIVELMGRELNWDDYKKQEQLETARKFLYYEMGYKSRSEQLTDRSEISLLPSDIDRYKKRFHKFDADQKGFITIVDVQRVLESINVQMDENTLHEILNEVDLNKNGQVELNEFLQLMSAIQKGRVSGSRLAILMKTAEENLDRRVPIPVDRSCGGL
